This passage reports Km results from ChEMBL document CHEMBL5579804, “Synthesis and kinetic evaluation of phosphomimetic inhibitors targeting type B ribose-5-phosphate isomerase from Mycobacterium tuberculosis” (Bioorg Med Chem Lett, 2024).

Compound in data set [1]: O=P(O)(O)OC[C@H]1O[C@@H](O)[C@H](O)[C@@H]1O
In words: Competitive inhibition of Mycobacterium tuberculosis H37Rv RPIB extracted from Escherichia coli BL21 assessed as Km using D-ribose-5-phosphate as substrate incubated for 10 mins by ultraviolet absorbance based spectrophotometric analysis.

Compound in data set [2]: O=P(O)(O)OC[C@H]1O[C@@H](O)[C@H](O)[C@@H]1O
As to the kind of experiment: Competitive inhibition of Mycobacterium tuberculosis RPIB assessed as Km using D-ribose-5-phosphate as substrate by spectrophotometric analysis.

Compound in data set [3]: O=P(O)(O)OC[C@H]1O[C@@H](O)[C@H](O)[C@@H]1O
In words: Competitive inhibition of Mycobacterium tuberculosis RPIB assessed as Km using D-ribose-5-phosphate as substrate.

Compound in data set [4]: O=P(O)(O)OC[C@H]1O[C@@H](O)[C@H](O)[C@@H]1O
As to the kind of experiment: Competitive inhibition of Mycobacterium tuberculosis RPIB assessed as Km using D-ribose-5-phosphate as substrate by ultraviolet absorbance based spectrophotometric analysis.

Compound in data set [5]: O=P(O)(O)OC[C@H]1O[C@@H](O)[C@H](O)[C@@H]1O
In words: Competitive inhibition of Escherichia coli RPIB assessed as Km using D-ribose-5-phosphate as substrate by ultraviolet absorbance based spectrophotometric analysis.

Compound in data set [6]: O=P(O)(O)OC[C@H]1O[C@@H](O)[C@H](O)[C@@H]1O
In words: Competitive inhibition of Escherichia coli RPIB assessed as Km using D-ribose-5-phosphate as substrate.

Compound in data set [7]: O=P(O)(O)OC[C@H]1O[C@@H](O)[C@H](O)[C@@H]1O
In words: Competitive inhibition of Escherichia coli RPIB assessed as Km using D-ribose-5-phosphate as substrate by spectrophotometric analysis.

Compound in data set [8]: O=P(O)(O)OC[C@H]1O[C@@H](O)[C@H](O)[C@@H]1O
In words: Competitive inhibition of Spinacia oleracea RPIA assessed as Km using D-ribose-5-phosphate as substrate by Michaelis-Menten kinetics analysis.

Compound in data set [9]: O=P(O)(O)OC[C@H]1O[C@@H](O)[C@H](O)[C@@H]1O
As to the kind of experiment: Competitive inhibition of Spinacia oleracea RPIA assessed as Km using D-ribose-5-phosphate as substrate by ultraviolet absorbance based spectrophotometric analysis.

Compound in data set [10]: O=P(O)(O)OC[C@H]1O[C@@H](O)[C@H](O)[C@@H]1O
In words: Competitive inhibition of Spinacia oleracea RPIA assessed as Km using D-ribose-5-phosphate as substrate.

By Km is commonly meant the concentration of substrate that gives half-maximal velocity.

B1: Ribose-5-phosphate isomerase B (Mycobacterium tuberculosis), P9WKD7 (protein)
chain: MSGMRVYLGADHAGYELKQRIIEHLKQTGHEPIDCGALRYDADDDYPAFCIAAATRTVADPGSLGIVLGGSGNGEQIAANKVPGARCALAWSVQTAALAREHNNAQLIGIGGRMHTVAEALAIVDAFVTTPWSKAQRHQRRIDILAEYERTHEAPPVPGAPA
For B1, the Km came out at 3.7 mM in [1], 3.1 mM in [2], 2100 µM in data set [3] and 1000 µM in data set [4].

B2: Ribose-5-phosphate isomerase B (Escherichia coli (strain K12)), P37351 (protein)
chain: MKKIAFGCDHVGFILKHEIVAHLVERGVEVIDKGTWSSERTDYPHYASQVALAVAGGEVDGGILICGTGVGISIAANKFAGIRAVVCSEPYSAQLSRQHNDTNVLAFGSRVVGLELAKMIVDAWLGAQYEGGRHQQRVEAITAIEQRRN
Consider B2, for which the Km came out at 1100 µM in data set [5], 1600 µM in data set [6] and 1500 µM in data set [7].

B3: ribose-5-phosphate isomerase (Spinacia oleracea), Q8RU73 (protein)
chain: MASAAFSLLPSTSSTTFNRHATTKLLNLKFLHNHRNKPFFTTTIKSLSSPSPTPVLTQDDLKKLAAEKAVDSVKSGMVLGLGTGSTAAFAVSRIGELLSAGKLTNIVGIPTSKRTAEQAASLGIPLSVLDDHPRIDLAIDGADEVDPDLNLVKGRGGALLREKMVEAASDKFIVVVDDTKLVDGLGGSRLAMPVEVVQFCWKYNLKRLQEIFKELGCEAKLRMEGDSSPYVTDNSNYIVDLYFPTSIKDAEAAGREISALEGVVEHGLFLGMASEVIIAGKTGVSVKTK
On to B3, for which the Km in [8] was determined as 7.5 mM; in data set [9], 3.3 mM; in [10], 3000 µM.
